Test results: patent US20080176814, “DNA-BASED APTAMERS FOR HUMAN CATHEPSIN G” (GENTIUM SPA, published 2008)
Read-outs that look alike come from different tables or passages of the source.

T1: Cathepsin G (Homo sapiens) (UniProt P08311)
T1 sequence: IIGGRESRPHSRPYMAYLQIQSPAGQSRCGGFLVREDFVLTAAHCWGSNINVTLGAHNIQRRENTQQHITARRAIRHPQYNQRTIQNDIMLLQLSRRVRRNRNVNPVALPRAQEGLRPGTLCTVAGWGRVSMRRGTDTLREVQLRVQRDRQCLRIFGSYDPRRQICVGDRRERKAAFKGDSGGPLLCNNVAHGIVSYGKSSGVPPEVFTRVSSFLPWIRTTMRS

T2: Cathepsin G (Homo sapiens, UniProt P08311 P08311:21-244)
T2 sequence: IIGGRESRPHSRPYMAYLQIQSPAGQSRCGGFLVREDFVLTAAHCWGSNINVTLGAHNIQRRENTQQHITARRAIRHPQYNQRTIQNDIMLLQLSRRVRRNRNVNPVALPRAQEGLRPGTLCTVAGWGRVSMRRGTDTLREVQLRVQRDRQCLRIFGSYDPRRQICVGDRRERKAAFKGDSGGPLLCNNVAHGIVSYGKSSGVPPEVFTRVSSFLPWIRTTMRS

B1: cmpCG51 (ssDNA)
DNA: ACACGAATACCCTCTGTGCTCAGCGTAACACCCAAGCGTATACCCACATATCACACGTTG
modifications: [NONE]

What was measured:
[1] = molecular target: T1, Cathepsin G (Homo sapiens); conditions: affinity chromatography; same buffer
[2] = molecular target: T1, Cathepsin G (Homo sapiens); conditions: affinity chromatography; same buffer; remark: listed apart in the source
[3] = molecular target: T1, Cathepsin G (Homo sapiens); experiment: SPR
[4] = molecular target: T1, Cathepsin G (Homo sapiens); experiment: SELEX; conditions: cycle 9 yield (0.4% at cycle 1); 30 mM Tris pH 7.5, 150 mM NaCl, 5 mM KCl, 5 mM MgCl2
Cathepsin G [5] = molecular target: T2, Cathepsin G; conditions: affinity chromatography; G-quartet control
Cathepsin G [6] = molecular target: T2, Cathepsin G; experiment: affinity chromatography; same buffer; conditions: tags: Europa Bioproducts or Calbiochem; from human neutrophils (SPR, amine-coupled to CM5 chip)
Method: The affinity of the oligonucleotides was determined by affinity chromatography as performed in the selection. Different aliquots of each oligonucleotide were previously incubated with 15 μg of Cathepsin G in ice. The solution was then loaded in the min-chromatography column used for the selection and washed with 15 volumes of buffer IB. After one hour incubation, it was washed with six volumes of buffer EB. Fractions of the same volumes were collected and counted.
We evaluated the oligonucleotide binding to cathepsin G by affinity chromatography in analogy with the selection method. The affinity of the aptamer CG51 was firstly compared with AC and GT oligonucleotides of the same length that, as mentioned, are clearly unable to fold into any structure characterised by Watson-Crick base pairs or G quartets formation. The complementary sequence of CG51, called cmpCG51, was included as a control.

[7] = relative potency vs GT 100, 25 C

| Molecule | Kd [2] [nM] | binding signal [3, 7] | further results |
| --- | --- | --- | --- |
| AC [(AC)30] | – | – | Kd [1]: 0.8 nM |
| AC [(AC)60] | 1.2 | – | – |
| AC [AC 40] | – | 0.0047 | – |
| AC [AC 80] | – | 0.017 | – |
| CGTACGGAATTCGCTAGCNNNNNNNNNNNNNNNNNNNNNNNNNNNNNNNNNNNNNNNNNNNNNNNNNNNNNNNNNNNNGGATCCGAGCTCCACGTG [cycle 9 selected pool] | – | – | binding signal [4]: 42% |
| GT [(GT)10 / GT 20] | 2 | – | – |
| GT [(GT)20 / GT 40] | 1.5 | 0.016 | – |
| GT [(GT)30 / GT 60] | – | 0.144 | Kd [1]: 1 nM |
| GT [(GT)40 / GT 80] | 1.2 | 0.32 | – |
| GT [GT 30] | – | 0.002 | – |
| GT [GT 100] | – | – | binding signal ([3]; relative potency, reference standard, HBS-EP pH 7.4, 25 C): 1 |
| THR thrombin aptamer | – | – | Kd (Cathepsin G [5]): 4 nM |
| B1 | – | – | Kd (Cathepsin G [6]): 0.6 nM |
